We go through 1 molecule from patent US20190256600A1 (ANAPTYSBIO, published 2019).

Bounds are passed on as bounds.

The target in experiment [1] is T1, full length native human PD-1 (on stably transfected CHO-K1 cells; native on human PBMCs) (human, UniProt Q15116 25-288).
T1 construct: whole, on cells; The same entry is used for the CHO-K1 transfectants and for PD-1 natively expressed on human PBMCs; also called cell-surface human PD-1; human PD-1 CHO-K1 cells
Kind of experiment: flow cytometry competition on human PD-1 CHO-K1 cells; competitor PD-L2-mFc-DyL650. As for the experimental part: (§1) In these studies, human PD-L1 and PD-L2 mouse IgG1 Fc fusion proteins were expressed, purified, and labeled with DyL650. The dose-response of binding of both PD-L1 and PD-L2 to PD-1 CHO-K1 cells was determined. To quantify blocking of ligand binding to PD-1 CHO-K1 cells, exemplary anti-PD-1 antibody or IgG4 control antibody in a 3-fold dilution series was pre-mixed with PD-L1-mFc-DyL650 or PD-L2-mFc-DyL650. The mixture was added to human PD-1 CHO-K1 cells (3E5 cells) and incubated at 4° C. Cells were washed once and re-suspended in the presence of propidium iodide and DyL650-PD-L1 or DyL650-PD-L2. Binding was analyzed on a BD FACSArray (BD Bioscience), excluding dead cells.
In general terms: Flow cytometry measures light scatter and fluorescence of single cells or particles in a stream.

Experiment [2] concerns the target T1, full length native human PD-1 (on …). As to the kind of experiment: flow cytometry competition on human PD-1 CHO-K1 cells; competitor PD-L1-mFc-DyL650. As for the experimental part: as §1
Experiment [3] has as its target T2, dimeric cynomolgus monkey PD-1 fusion protein (fused with mouse IgG2a Fc) (cynomolgus monkey; mouse, UniProt B0LAJ3 25-170).
T2 construct: Soluble dimeric analyte in SPR; also called cynomolgus PD-1; soluble PD-1 fusion
Kind of experiment: SPR (Biacore T200); cynomolgus monkey against human PD-1 fusion. On the procedure: (§2) SPR analyses were carried out using a Biacore T200 system and kinetic constants were determined using Biacore T200 Evaluation software. […] GE anti-human IgG (Fc-specific) was immobilized on a Biacore CM5 chip. An exemplary anti-PD-1 antibody (having heavy and light chains as set forth in SEQ ID NOs: 1 & 2, respectively) was then captured onto this surface […]. Next, dimeric human or cynomolgus monkey PD-1 fusion proteins (fused with mouse IgG2a Fc) in a two-fold serial dilution series were flowed over the captured exemplary antibody and dissociation was monitored. Capture and analyte binding were performed in HBS-EP+ buffer. Chips were regenerated between each run using 3 M MgCl₂. The resulting sensorgrams were fitted globally using a 1:1 binding model to calculate on- and off-rates (kassoc and kdissoc, respectively) and dissociation constants as a measure of overall affinity (KD).
(Surface plasmon resonance follows binding to a sensor surface in real time, without labels.)

The target in experiment [4] is T1, full length native human PD-1 (on …). As to the kind of experiment: receptor occupancy by flow cytometry on human PBMCs (CD3+/IgG4+ cells, PE-labeled anti-IgG4), pre-incubation with a dilution series of the antibody [panel Human]. The source says:
(§3) For these studies, PBMCs from healthy human donors or cynomolgus monkeys were used. Human PBMCs were isolated from buffy coats obtained from the Indiana Blood Center and cynomolgus monkey PBMCs were isolated from peripheral blood collected aseptically into sodium heparin obtained from Worldwide Primates, Inc. In both cases, separation was by Ficoll using Ficoll-Paque 1.077 and cryopreserved for later use.
(§4) On the day of the experiments, the cryopreserved cells were thawed and the cell concentration was adjusted to 2E6 cells/ml prior to resting overnight at 37° C. in a humidified CO₂ incubator. Cells were then pelleted and re-suspended in 1 ml of media and recounted. The cell concentration was adjusted to 4E5 cells/150 μl of media. Human AB Serum (40 μl/ml) was added to block Fc receptors. After centrifugation, the cells were incubated with exemplary anti-PD-1 antibody at 4° C. PBMCs were then washed three times before being split into two conditions. One set of cells was incubated with exemplary anti-PD-1 antibody and the other set with IgG4 for 30 minutes at 4° C. The PBMCs were then washed four times prior to being stained with FITC-labeled anti-CD3 and PE-labeled anti-IgG4 antibodies. […] The number of CD3+/IgG4+ cells was determined for each parameter and the percentage of occupancy for the exemplary anti-PD-1 antibody was determined as follows: […]

Experiment [5] addresses T3, full length native cynomolgus monkey PD-1 (on stably transfected CHO-K1 cells); native on cynomolgus monkey … (cynomolgus monkey, UniProt B0LAJ3 25-288).
T3 construct: The same entry is used for the CHO-K1 transfectants and for PD-1 natively expressed on cynomolgus monkey PBMCs; also called cell-surface cynomolgus monkey PD-1
As to the kind of experiment: receptor occupancy by flow cytometry on cynomolgus monkey PBMCs (CD3+/IgG4+ cells, PE-labeled anti-IgG4), pre-incubation with a dilution series of the antibody [panel Cynomolgus monkey].
From the text: as §3, §4

In experiment [6] the target is T3, full length native cynomolgus monkey …. As to the kind of experiment: flow cytometry on CHO-K1 cells stably expressing full length cynomolgus monkey PD-1; PE anti-human IgG4 detection. On the procedure: (§5) Flow cytometry studies were performed with CHO-K1 cell line clones in which either full length native human or cynomolgus monkey PD-1 was stably transfected. An exemplary anti-PD-1 antibody (having heavy and light chains as set forth in SEQ ID NOs: 1 & 2, respectively) was diluted in 3-fold dilutions. Dilutions of exemplary antibody were added to human or cynomolgus monkey PD-1 expressing CHO-K1 cells (1E5 cells) and incubated on ice. Cells were washed twice and incubated on ice with PE-conjugated mouse anti-human IgG4 to detect antibody binding. Cells were washed and resuspended in the presence of propidium iodide to exclude dead cells and fixed and analyzed for fluorescence on a BD FACSArray instrument (BD Biosciences). Data were analyzed for median fluorescence intensity, graphed, and curves fitted for EC₅₀ value calculation in GraphPad Prism (GraphPad Software, Inc.) using a non-linear (sigmoidal) regression analysis.

In experiment [7] the target is T1, full length native human PD-1 (on …). Kind of experiment: flow cytometry on CHO-K1 cells stably expressing full length human PD-1; PE anti-human IgG4 detection. On the procedure:
as §5

Experiment [8] addresses T4, dimeric human PD-1 fusion protein (fused with mouse IgG2a Fc) (human; mouse, UniProt Q15116 25-167, limits assumed).
T4 construct: Soluble dimeric analyte in SPR; also called soluble PD-1 fusion; not shown: mouse IgG2a Fc
As to the kind of experiment: SPR (Biacore T200); antibody captured on anti-human IgG Fc chip, dimeric PD-1-mouse IgG2a Fc as analyte, 1:1 model. On the procedure:
as §2

The target of experiment [9] is T2, dimeric cynomolgus monkey PD-1 fusion …. The description is as above. On the procedure: as §2

T4 sequence (Q15116 25-167 limits assumed): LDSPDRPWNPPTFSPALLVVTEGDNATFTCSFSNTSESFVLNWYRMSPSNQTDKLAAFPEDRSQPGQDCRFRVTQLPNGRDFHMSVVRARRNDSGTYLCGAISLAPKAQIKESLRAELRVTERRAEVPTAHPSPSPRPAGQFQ
T1 sequence (Q15116 25-288): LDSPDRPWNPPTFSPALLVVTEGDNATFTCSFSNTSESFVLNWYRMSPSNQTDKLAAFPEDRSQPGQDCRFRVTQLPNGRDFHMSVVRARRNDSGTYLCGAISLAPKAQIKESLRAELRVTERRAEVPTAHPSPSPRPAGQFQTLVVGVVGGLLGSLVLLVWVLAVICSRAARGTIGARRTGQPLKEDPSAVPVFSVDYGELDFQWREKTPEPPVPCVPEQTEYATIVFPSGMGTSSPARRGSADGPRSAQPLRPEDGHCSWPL
T2 sequence (B0LAJ3 entry or part of it limits assumed): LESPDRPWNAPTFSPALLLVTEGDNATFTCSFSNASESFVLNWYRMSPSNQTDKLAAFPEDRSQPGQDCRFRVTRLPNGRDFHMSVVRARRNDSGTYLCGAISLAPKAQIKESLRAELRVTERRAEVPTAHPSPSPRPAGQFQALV
T3 sequence (B0LAJ3 entry or part of it limits assumed): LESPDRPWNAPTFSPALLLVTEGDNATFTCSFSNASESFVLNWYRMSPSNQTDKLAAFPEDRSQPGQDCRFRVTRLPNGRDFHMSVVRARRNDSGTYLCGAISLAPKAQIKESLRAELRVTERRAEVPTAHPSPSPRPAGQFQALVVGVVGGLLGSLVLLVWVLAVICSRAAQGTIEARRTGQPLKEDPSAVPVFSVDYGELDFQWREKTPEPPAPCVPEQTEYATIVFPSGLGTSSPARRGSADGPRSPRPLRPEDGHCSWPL

B1: exemplary anti-PD-1 antibody (having heavy and light chains as set forth in SEQ ID NOs: 1 & 2, respectively) (antibody, human IgG4 S228P, kappa, V domains shown)
VH: EVQLLESGGGLVQPGGSLRLSCAASGFTFSSYDMSWVRQAPGKGLEWVSTISGGGSYTYYQDSVKGRFTISRDNSKNTLYLQMNSLRAEDTAVYYCASPYYAMDYWGQGTTVTVSS
VL: DIQLTQSPSFLSAYVGDRVTITCKASQDVGTAVAWYQQKPGKAPKLLIYWASTLHTGVPSRFSGSGSGTEFTLTISSLQPEDFATYYCQHYSSYPWTFGQGTKLEIKR
modifications: occupied N-glycosylation site at asparagine residue 293 of SEQ ID NO:1
notes: Humanized IgG4 (human IGHG4*01) with kappa light chain (IGKC*01); also called exemplary humanized monoclonal anti-PD-1 antibody; anti-PD-1 mAb
In general, IC50 refers to the concentration at which inhibition is half-maximal. In general, EC50 (read off the curve) refers to the concentration at which the effect is half-maximal. The term EC50 denotes the concentration needed to bring the measured effect to its halfway point. For orientation: Kd means the concentration at which binding is half-saturated. As a reminder, the koff is the rate constant with which the complex falls apart. The kon is the rate constant with which the complex forms. Consider B1, for which the IC50 was determined as 1.5 nM in experiment [1] and 1.8 nM in experiment [2]. In addition, in experiment [3], the “fold difference in KD against human PD-1” value was less than 2 fold. The “EC50 (read off the curve)” value in experiment [4] is roughly 0.2 µg/mL; in [5], roughly 0.1 µg/mL. For the same molecule, the EC50 is 3.4 nM in [6] and 2 nM in experiment [7]. Further, the Kd in experiment [8] was determined as 0.3 nM; in experiment [9], 0.53 nM. Further, the koff in experiment [8] turned out to be 0.00017 s⁻¹; in experiment [9] it was 0.00023 s⁻¹. Also, the kon in [8] was 570000 M⁻¹ s⁻¹; in experiment [9], 430000 M⁻¹ s⁻¹.
